Results reported in US20140087995A1 (published 2014).
Numbered stars: 1 amine (or outer) side, 2 acyl side, 3 side chain; on linkers, the order of the positions; unused ones are H or OH. Bridge positions count the residues as written; N and C are the ends. Side chains are listed from the residue outwards. Ends that are not written are not given here. * marks the point of attachment. C20 diacid = O=C(O)CCCCCCCCCCCCCCCCCCC(=O)*; γGlu = O=C(O)[C@H](CCC(=O)[*:2])N[*:1]; AEEA = NCCOCCOCC(=O)O

T1: human calcitonin receptor (human, UniProt P30988 25-474)
T1 construct: whole, on cells; Used as cell membranes; also called hCTR; hCT
T1 sequence (looked up): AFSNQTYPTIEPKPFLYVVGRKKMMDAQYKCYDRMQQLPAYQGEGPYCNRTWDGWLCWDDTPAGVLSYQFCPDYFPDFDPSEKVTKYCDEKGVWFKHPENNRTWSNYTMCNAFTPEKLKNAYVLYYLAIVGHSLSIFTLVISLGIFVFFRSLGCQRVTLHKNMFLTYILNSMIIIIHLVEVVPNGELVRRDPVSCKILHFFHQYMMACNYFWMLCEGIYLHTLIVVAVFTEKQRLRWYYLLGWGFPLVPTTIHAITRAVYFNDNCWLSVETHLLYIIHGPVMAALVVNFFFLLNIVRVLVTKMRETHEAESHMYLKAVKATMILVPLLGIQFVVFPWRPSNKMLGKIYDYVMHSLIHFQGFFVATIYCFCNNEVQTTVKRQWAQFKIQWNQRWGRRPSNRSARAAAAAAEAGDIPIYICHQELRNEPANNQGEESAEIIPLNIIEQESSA

B1: N^ε1-[2-[2-[2-[[(4S)-4-carboxy-4-(19-carboxynonadecanoylamino)butanoyl]amino]ethoxy]ethoxy]acetyl]-[His14,Arg17,Pro21,Pro27,His34]-h-amylin (peptide)
peptide: K([AEEA-γGlu-C20 diacid])CNTATCATQRLAHFLRHSSPNFGAIPSSTNVGHNTY-NH2
modifications: disulfide 2-7; N-terminus assumed
SMILES: CC[C@H](C)[C@H](NC(=O)[C@H](C)NC(=O)CNC(=O)[C@H](Cc1ccccc1)NC(=O)[C@H](CC(N)=O)NC(=O)[C@@H]1CCCN1C(=O)[C@H](CO)NC(=O)[C@H](CO)NC(=O)[C@H](Cc1c[nH]cn1)NC(=O)[C@H](CCCNC(=N)N)NC(=O)[C@H](CC(C)C)NC(=O)[C@H](Cc1ccccc1)NC(=O)[C@H](Cc1c[nH]cn1)NC(=O)[C@H](C)NC(=O)[C@H](CC(C)C)NC(=O)[C@H](CCCNC(=N)N)NC(=O)[C@H](CCC(N)=O)NC(=O)[C@@H](NC(=O)[C@H](C)NC(=O)[C@@H]1CSSC[C@H](NC(=O)[C@@H](N)CCCCNC(=O)COCCOCCNC(=O)CC[C@H](NC(=O)CCCCCCCCCCCCCCCCCCC(=O)O)C(=O)O)C(=O)N[C@@H](CC(N)=O)C(=O)N[C@@H]([C@@H](C)O)C(=O)N[C@@H](C)C(=O)N[C@@H]([C@@H](C)O)C(=O)N1)[C@@H](C)O)C(=O)N1CCC[C@H]1C(=O)N[C@@H](CO)C(=O)N[C@@H](CO)C(=O)N[C@H](C(=O)N[C@@H](CC(N)=O)C(=O)N[C@H](C(=O)NCC(=O)N[C@@H](Cc1c[nH]cn1)C(=O)N[C@@H](CC(N)=O)C(=O)N[C@H](C(=O)N[C@@H](Cc1ccc(O)cc1)C(N)=O)[C@@H](C)O)C(C)C)[C@@H](C)O
notes: also called compound 80
B2: N^ε1-[2-[2-[2-[[(4S)-4-carboxy-4-(19-carboxynonadecanoylamino)butanoyl]amino]ethoxy]ethoxy]acetyl]-[Lys14,Arg17,Pro21,Pro27,Pro31]-h-amylin (peptide)
peptide: K([AEEA-γGlu-C20 diacid])CNTATCATQRLAKFLRHSSPNFGAIPSSTPVGSNTY-NH2
modifications: disulfide 2-7; N-terminus assumed
SMILES: CC[C@H](C)[C@H](NC(=O)[C@H](C)NC(=O)CNC(=O)[C@H](Cc1ccccc1)NC(=O)[C@H](CC(N)=O)NC(=O)[C@@H]1CCCN1C(=O)[C@H](CO)NC(=O)[C@H](CO)NC(=O)[C@H](Cc1c[nH]cn1)NC(=O)[C@H](CCCNC(=N)N)NC(=O)[C@H](CC(C)C)NC(=O)[C@H](Cc1ccccc1)NC(=O)[C@H](CCCCN)NC(=O)[C@H](C)NC(=O)[C@H](CC(C)C)NC(=O)[C@H](CCCNC(=N)N)NC(=O)[C@H](CCC(N)=O)NC(=O)[C@@H](NC(=O)[C@H](C)NC(=O)[C@@H]1CSSC[C@H](NC(=O)[C@@H](N)CCCCNC(=O)COCCOCCNC(=O)CC[C@H](NC(=O)CCCCCCCCCCCCCCCCCCC(=O)O)C(=O)O)C(=O)N[C@@H](CC(N)=O)C(=O)N[C@@H]([C@@H](C)O)C(=O)N[C@@H](C)C(=O)N[C@@H]([C@@H](C)O)C(=O)N1)[C@@H](C)O)C(=O)N1CCC[C@H]1C(=O)N[C@@H](CO)C(=O)N[C@@H](CO)C(=O)N[C@H](C(=O)N1CCC[C@H]1C(=O)N[C@H](C(=O)NCC(=O)N[C@@H](CO)C(=O)N[C@@H](CC(N)=O)C(=O)N[C@H](C(=O)N[C@@H](Cc1ccc(O)cc1)C(N)=O)[C@@H](C)O)C(C)C)[C@@H](C)O
notes: also called compound 74
B3: N^ε1-[2-[2-[2-[[(4S)-4-carboxy-4-(19-carboxynonadecanoylamino)butanoyl]amino]ethoxy]ethoxy]acetyl]-[Thr14,Arg17,Pro21,Pro27,Pro31]-h-amylin (peptide)
peptide: K([AEEA-γGlu-C20 diacid])CNTATCATQRLATFLRHSSPNFGAIPSSTPVGSNTY-NH2
modifications: disulfide 2-7; N-terminus assumed
SMILES: CC[C@H](C)[C@H](NC(=O)[C@H](C)NC(=O)CNC(=O)[C@H](Cc1ccccc1)NC(=O)[C@H](CC(N)=O)NC(=O)[C@@H]1CCCN1C(=O)[C@H](CO)NC(=O)[C@H](CO)NC(=O)[C@H](Cc1c[nH]cn1)NC(=O)[C@H](CCCNC(=N)N)NC(=O)[C@H](CC(C)C)NC(=O)[C@H](Cc1ccccc1)NC(=O)[C@@H](NC(=O)[C@H](C)NC(=O)[C@H](CC(C)C)NC(=O)[C@H](CCCNC(=N)N)NC(=O)[C@H](CCC(N)=O)NC(=O)[C@@H](NC(=O)[C@H](C)NC(=O)[C@@H]1CSSC[C@H](NC(=O)[C@@H](N)CCCCNC(=O)COCCOCCNC(=O)CC[C@H](NC(=O)CCCCCCCCCCCCCCCCCCC(=O)O)C(=O)O)C(=O)N[C@@H](CC(N)=O)C(=O)N[C@@H]([C@@H](C)O)C(=O)N[C@@H](C)C(=O)N[C@@H]([C@@H](C)O)C(=O)N1)[C@@H](C)O)[C@@H](C)O)C(=O)N1CCC[C@H]1C(=O)N[C@@H](CO)C(=O)N[C@@H](CO)C(=O)N[C@H](C(=O)N1CCC[C@H]1C(=O)N[C@H](C(=O)NCC(=O)N[C@@H](CO)C(=O)N[C@@H](CC(N)=O)C(=O)N[C@H](C(=O)N[C@@H](Cc1ccc(O)cc1)C(N)=O)[C@@H](C)O)C(C)C)[C@@H](C)O
notes: also called compound 75
B4: N^ε1-[2-[2-[2-[[(4S)-4-carboxy-4-(19-carboxynonadecanoylamino)butanoyl]amino]ethoxy]ethoxy]acetyl]-[Ser14,Arg17,Pro21,Pro27,Pro31]-h-amylin (peptide)
peptide: K([AEEA-γGlu-C20 diacid])CNTATCATQRLASFLRHSSPNFGAIPSSTPVGSNTY-NH2
modifications: disulfide 2-7; N-terminus assumed
SMILES: CC[C@H](C)[C@H](NC(=O)[C@H](C)NC(=O)CNC(=O)[C@H](Cc1ccccc1)NC(=O)[C@H](CC(N)=O)NC(=O)[C@@H]1CCCN1C(=O)[C@H](CO)NC(=O)[C@H](CO)NC(=O)[C@H](Cc1c[nH]cn1)NC(=O)[C@H](CCCNC(=N)N)NC(=O)[C@H](CC(C)C)NC(=O)[C@H](Cc1ccccc1)NC(=O)[C@H](CO)NC(=O)[C@H](C)NC(=O)[C@H](CC(C)C)NC(=O)[C@H](CCCNC(=N)N)NC(=O)[C@H](CCC(N)=O)NC(=O)[C@@H](NC(=O)[C@H](C)NC(=O)[C@@H]1CSSC[C@H](NC(=O)[C@@H](N)CCCCNC(=O)COCCOCCNC(=O)CC[C@H](NC(=O)CCCCCCCCCCCCCCCCCCC(=O)O)C(=O)O)C(=O)N[C@@H](CC(N)=O)C(=O)N[C@@H]([C@@H](C)O)C(=O)N[C@@H](C)C(=O)N[C@@H]([C@@H](C)O)C(=O)N1)[C@@H](C)O)C(=O)N1CCC[C@H]1C(=O)N[C@@H](CO)C(=O)N[C@@H](CO)C(=O)N[C@H](C(=O)N1CCC[C@H]1C(=O)N[C@H](C(=O)NCC(=O)N[C@@H](CO)C(=O)N[C@@H](CC(N)=O)C(=O)N[C@H](C(=O)N[C@@H](Cc1ccc(O)cc1)C(N)=O)[C@@H](C)O)C(C)C)[C@@H](C)O
notes: also called compound 73
B5: N^ε1-[2-[2-[2-[[(4S)-4-carboxy-4-(19-carboxynonadecanoylamino)butanoyl]amino]ethoxy]ethoxy]acetyl]-[His14,Arg17,Pro21,Pro27,Pro34]-h-amylin (peptide)
peptide: K([AEEA-γGlu-C20 diacid])CNTATCATQRLAHFLRHSSPNFGAIPSSTNVGPNTY-NH2
modifications: disulfide 2-7; N-terminus assumed
SMILES: CC[C@H](C)[C@H](NC(=O)[C@H](C)NC(=O)CNC(=O)[C@H](Cc1ccccc1)NC(=O)[C@H](CC(N)=O)NC(=O)[C@@H]1CCCN1C(=O)[C@H](CO)NC(=O)[C@H](CO)NC(=O)[C@H](Cc1c[nH]cn1)NC(=O)[C@H](CCCNC(=N)N)NC(=O)[C@H](CC(C)C)NC(=O)[C@H](Cc1ccccc1)NC(=O)[C@H](Cc1c[nH]cn1)NC(=O)[C@H](C)NC(=O)[C@H](CC(C)C)NC(=O)[C@H](CCCNC(=N)N)NC(=O)[C@H](CCC(N)=O)NC(=O)[C@@H](NC(=O)[C@H](C)NC(=O)[C@@H]1CSSC[C@H](NC(=O)[C@@H](N)CCCCNC(=O)COCCOCCNC(=O)CC[C@H](NC(=O)CCCCCCCCCCCCCCCCCCC(=O)O)C(=O)O)C(=O)N[C@@H](CC(N)=O)C(=O)N[C@@H]([C@@H](C)O)C(=O)N[C@@H](C)C(=O)N[C@@H]([C@@H](C)O)C(=O)N1)[C@@H](C)O)C(=O)N1CCC[C@H]1C(=O)N[C@@H](CO)C(=O)N[C@@H](CO)C(=O)N[C@H](C(=O)N[C@@H](CC(N)=O)C(=O)N[C@H](C(=O)NCC(=O)N1CCC[C@H]1C(=O)N[C@@H](CC(N)=O)C(=O)N[C@H](C(=O)N[C@@H](Cc1ccc(O)cc1)C(N)=O)[C@@H](C)O)C(C)C)[C@@H](C)O
notes: also called compound 68
B6: N^ε1-[2-[2-[2-[[(4S)-4-carboxy-4-(19-carboxynonadecanoylamino)butanoyl]amino]ethoxy]ethoxy]acetyl]-[His14,Arg17,Pro21,Pro27]-h-amylin (peptide)
peptide: K([AEEA-γGlu-C20 diacid])CNTATCATQRLAHFLRHSSPNFGAIPSSTNVGSNTY-NH2
modifications: disulfide 2-7; N-terminus assumed
SMILES: CC[C@H](C)[C@H](NC(=O)[C@H](C)NC(=O)CNC(=O)[C@H](Cc1ccccc1)NC(=O)[C@H](CC(N)=O)NC(=O)[C@@H]1CCCN1C(=O)[C@H](CO)NC(=O)[C@H](CO)NC(=O)[C@H](Cc1c[nH]cn1)NC(=O)[C@H](CCCNC(=N)N)NC(=O)[C@H](CC(C)C)NC(=O)[C@H](Cc1ccccc1)NC(=O)[C@H](Cc1c[nH]cn1)NC(=O)[C@H](C)NC(=O)[C@H](CC(C)C)NC(=O)[C@H](CCCNC(=N)N)NC(=O)[C@H](CCC(N)=O)NC(=O)[C@@H](NC(=O)[C@H](C)NC(=O)[C@@H]1CSSC[C@H](NC(=O)[C@@H](N)CCCCNC(=O)COCCOCCNC(=O)CC[C@H](NC(=O)CCCCCCCCCCCCCCCCCCC(=O)O)C(=O)O)C(=O)N[C@@H](CC(N)=O)C(=O)N[C@@H]([C@@H](C)O)C(=O)N[C@@H](C)C(=O)N[C@@H]([C@@H](C)O)C(=O)N1)[C@@H](C)O)C(=O)N1CCC[C@H]1C(=O)N[C@@H](CO)C(=O)N[C@@H](CO)C(=O)N[C@H](C(=O)N[C@@H](CC(N)=O)C(=O)N[C@H](C(=O)NCC(=O)N[C@@H](CO)C(=O)N[C@@H](CC(N)=O)C(=O)N[C@H](C(=O)N[C@@H](Cc1ccc(O)cc1)C(N)=O)[C@@H](C)O)C(C)C)[C@@H](C)O
notes: also called compound 69

Each binder was assayed against T1, human calcitonin receptor (assay: ratio of hCTR IC50 to hAmylin-R IC50 (reference: human amylin receptor)).
Summary of the method: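 Competition binding by SPA with cell membranes (35 ng/μL) and SPA beads in 50 mM Hepes pH 7.4 with 1 mM CaCl2, 5 mM MgCl2, 0.1% OA and 0.02% Tween20. Incubated 120 min at 25 °C with shaking, then counted.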

Binder | Ratio hCT/hAmylin binding
B1 | 68.1
B2 | 101
B3 | 91.4
B4 | 51.7
B5 | 64.4
B6 | 65.3

Each binder was assayed against T1, human calcitonin receptor (assay: SPA competition on BHK cell membranes, 125I-calcitonin as radioligand (Assay VII)).
Summary of the method: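 BHK hCTR membranes 35 ng/μL + SPA beads 0.05 mg/well; buffer 50 mM Hepes pH 7.4, 1 mM CaCl2, 5 mM MgCl₂, 0.1% OA, 0.02% Tween20. 120 min, 25° C., shaking. Scintillation count; IC50 by one-site binding competition.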

Binder | IC50 [nM]
B1 | 19.8
B2 | 79.9
B3 | 60.9
B4 | 5.38
B5 | 5.66
B6 | 8.68
